{"source": "paper doi:10.1101/2025.01.14.633037", "assay": "FRET or BRET; DAmFRET: mEos3.1 fusions expressed in S. cerevisiae, galactose induction 20 hr with 100 uM MG132, partial photoconversion of mEos3.1, flow cytometry; AmFRET between copies of the same protein against its intracellular concentration (approximately 2 to 200 uM)", "data": [{"substance": "MBP fused to mEos3.1 and poly-TA (28 residues, two continuous TA tracts of length 12)", "values": [{"measurement": "fold increase of Csat against poly-TA without the solubility tag", "value": "> 10", "unit": "fold"}]}]}
